Kd, koff and kon data for four substances are collected here from article PMC7757244.

This assay addresses Mut FcγRIIIa (human) (UniProt P08637). The assay is described as follows: SPR. On the technique in general: SPR reads the build-up and loss of mass on a sensor chip optically.
UniProt P08637, sequence (P08637 17-254): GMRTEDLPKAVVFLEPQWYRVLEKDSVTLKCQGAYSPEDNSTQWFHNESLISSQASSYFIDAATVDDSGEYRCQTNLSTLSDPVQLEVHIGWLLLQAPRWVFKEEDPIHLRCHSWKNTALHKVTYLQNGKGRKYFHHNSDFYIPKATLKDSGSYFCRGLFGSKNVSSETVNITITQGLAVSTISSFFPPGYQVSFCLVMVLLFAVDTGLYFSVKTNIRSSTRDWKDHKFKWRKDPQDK
In the case of ExpiCHO-Trastuzumab (antibody), the Kd was 2.52 µM, the koff was found to be 0.0893 s⁻¹ and the kon is 36200 M⁻¹ s⁻¹.

The substance Expi293-Rituximab (antibody) registered a Kd of 1.38 µM, a koff of 0.0544 s⁻¹ and a kon of 39600 M⁻¹ s⁻¹.

ExpiCHO-Rituximab (antibody) displayed a Kd of 2.03 µM, a koff of 0.0803 s⁻¹ and a kon of 39900 M⁻¹ s⁻¹.

The substance Expi293-Trastuzumab (antibody) registered a Kd of 1.95 µM and a koff of 0.0583 s⁻¹.

For orientation: Kd means the free concentration of one partner at which half of the binding sites on the other are occupied at equilibrium, for simple one-to-one binding. Higher therefore signals weaker binding. Usually koff stands for the rate constant with which the complex falls apart. A lower koff goes with slow dissociation. Usually kon stands for a measure of how fast the partners come together.
